US11370837 (dated 2022)
Positions count from the first letter of the chain named.

B1: ADI-30293 Fab (antibody, V domains shown)
VH: EVQLVESGGGLVQPGGSLRLSCAASGFTFSSYSMNWVRQAPGKGLEWVSYISSSGTINYADSVKGRFTISRDNAKNSLYLQMNSLRAEDTAVYYCARHRIADSPSRAFDIWGQGTMVTVSS
VL: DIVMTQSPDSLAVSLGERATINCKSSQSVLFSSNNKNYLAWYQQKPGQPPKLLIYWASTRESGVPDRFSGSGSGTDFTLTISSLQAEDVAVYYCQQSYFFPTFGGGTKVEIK
B2: ADI-27301 Fab (antibody, V domains shown)
VH: QLQLQESGPGLVKPSETLSLTCTVSGGSISSSSYYWGWIRQPPGKGLEWIGSIYYSGSTYYNPSLKSRVTISVDTSKNQFSLKLSSVTAADTAVYYCAREAGRGTTGLLFDYWGQGTLVTVSS
VL: DIQMTQSPSTLSASVGDRVTITCRASQSISSWLAWYQQKPGKAPKLLIYKASSLESGVPSRFSGSGSGTEFTLTISSLQPDDFATYYCQQYGILPRTFGGGTKVEIK
B3: ADI-30272 Fab (antibody, V domains shown)
VH: QVQLVQSGAEVKKPGASVKVSCKASGYTFTEYYMHWVRQAPGQGLEWMGIISPSAGSTSYAQKFQGRVTMTRDTSTSTVYMELSSLRSEDTAVYYCARDHDIAAAGRLADYWGQGTLVTVSS
VL: DIQMTQSPSSVSASVGDRVTITCRASQGISSWLAWYQQKPGKAPKLLISAASSLQSGVPSRFSGSGSGTDFTLTISSLQPEDFATYYCQQAVILPITFGGGTKVEIK
B4: ADI-30278 Fab (antibody, V domains shown)
VH: B3 VH with S59K, A103R, A104L
VL: B3 VL
B5: ADI-27278 Fab (antibody, V domains shown)
VH: EVQLVESGGGLVQPGGSLRLSCAASGFTFSSYSMNWVRQAPGKGLEWVSYISGSSSTIYYADSVKGRFTISRDNAKNSLYLQMNSLRAEDTAVYYCARHRIADSPSRAFDIWGQGTMVTVSS
VL: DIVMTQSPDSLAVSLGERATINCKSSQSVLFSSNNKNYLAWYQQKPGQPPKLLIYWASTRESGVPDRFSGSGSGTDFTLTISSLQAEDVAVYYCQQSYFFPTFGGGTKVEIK
B6: ADI-30286 Fab (antibody, V domains shown)
VH: EVQLLESGGGLVQPGGSLRLSCAASGFTFGPYGMSWVRQAPGKGLEWVSAISGSGASTWYADSVKGRFTISRDNSKNTLYLQMNSLRAEDTAVYYCAKDPGTHYSGYYYIWRYWGQGTLVTVSS
VL: EIVMTQSPATLSVSPGERATLSCRASQSVSSNLAWYQQKPGQAPRLLIYSASTRATGIPARFSGSGSGTEFTLTISSLQSEDFAVYYCQQYVPHPPFTFGGGTKVEIK
B7: ADI-27291 Fab (antibody, V domains shown)
VH: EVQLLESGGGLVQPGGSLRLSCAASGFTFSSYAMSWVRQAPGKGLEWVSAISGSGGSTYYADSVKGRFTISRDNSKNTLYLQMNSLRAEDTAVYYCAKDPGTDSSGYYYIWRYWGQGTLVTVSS
VL: B6 VL
B8: ADI-27243 Fab (antibody, V domains shown)
VH: QLQLQESGPGLVKPSETLSLTCTVSGGSISSSRYYWGWIRQPPGKGLEWIGSIYYSGSTYYNPSLKSRVTISVDTSKNQFSLKLSSVTAADTAVYYCARDGLYHTPEYFQHWGQGTLVTVSS
VL: EIVLTQSPATLSLSPGERATLSCRASQSVSSYLAWYQQKPGQAPRLLIYDASNRATGIPARFSGSGSGTDFTLTISSLEPEDFAVYYCQQRFAFPYTFGGGTKVEIK
B9: ADI-30336 Fab (antibody, V domains shown)
VH: B8 VH
VL: B8 VL with F94H
B10: ADI-30268 Fab (antibody, V domains shown)
VH: QVQLVQSGAEVKKPGASVKVSCKASGYTFGSYYMGWVRQAPGQGLEWMGIIDPSGGRTSYARKFQGRVTMTRDTSTSTVYMELSSLRSEDTAVYYCARARTPSSWPYGMDVWGQGTTVTVSS
VL: DIQMTQSPSSLSASVGDRVTITCRASQSINSYLNWYQQKPGKAPKLLIYAASSLQSGVPSRFSGSGSGTDFTLTISSLQPEDFATYYCQQSLLTPFTFGGGTKVEIK

Molecular target: T1, human TIGIT-Fc (human, UniProt Q495A1)
T1 chain: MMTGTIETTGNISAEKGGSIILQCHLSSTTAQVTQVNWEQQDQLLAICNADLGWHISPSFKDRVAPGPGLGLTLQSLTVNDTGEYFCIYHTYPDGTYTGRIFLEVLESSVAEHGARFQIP
Experiment: BLI

Binder | Kd
B1 | 3.49 nM
B2 | 8.01 nM
B3 | 1.19 nM
B4 | 0.243 nM
B5 | 10.9 nM
B6 | 0.436 nM
B7 | 6.48 nM
B8 | 9.47 nM
B9 | 0.566 nM
B10 | 0.571 nM
